In the supplement of paper PMC11780869:

Tested on: Bacillus subtilis
Assay: cleaved RNA product abundance (RNA/gDNA barcode ratio) relative to median wild-type variant (ratio to wild type); higher = more accumulation of the downstream cleavage product
Settings: cleavage site: cggR-gapA (positions -7 to +36 mutated)
How it was run: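 Cleaved product abundance is expressed as the RNA:gDNA barcode ratio per construct, scaled to the median construct carrying the unmutated site. The constructs were barcoded, mutagenized RNase Y cleavage-site windows in truncated aprE or tetM reporter mRNAs integrated into the B. subtilis chromosome. Cultures grew in LB at 37°C from OD600 0.0003 to 0.3 before cleaved RNA was gel-selected and barcode-sequenced.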

[1] = experiment (reporter, strain, medium): exp 4a: truncated aprE reporter, strain BJT201 with 2% xylose (RNase J1 expressed)
[2] = experiment (reporter, strain, medium): exp 2b: truncated aprE reporter, strain BJT200
[3] = experiment (reporter, strain, medium): exp 6: tetM reporter, strain 168

| Sequence | cleaved RNA product abundance [1] | cleaved RNA product abundance [2] | cleaved RNA product abundance [3] |
| --- | --- | --- | --- |
| ACAGACGAAGGAGCCGCAAAGAAGTTATTAAGGGATGAAGAATTCCTCAATATAAATATCTCTCACTTATTTAAA | 0.29 | – | – |
| ACAGACGAAGGAGCCGCAAAGAAGTTATTAAGGGATGAAGATTCCCTCAATATAAATATCTCTCACTTATTTAAA | 0.68 | – | – |
| ACAGACGAAGGAGCCGCAAAGAAGTTATTAAGGGATGAAGCATCCCTCAATATAAATATCTCTCACTTATTTAAA | 0.748 | – | – |
| ACAGACGAAGGAGCCGCAAAGAAGTTATTAAGGGATGAATAAAACCTCAATATAAATATCTCTCACTTATTTAAA | 0.125 | 0.119 | – |
| ACAGACGAAGGAGCCGCAAAGAAGTTATTAAGGGATGAATAAACACTCAATATAAATATCTCTCACTTATTTAAA | 0.172 | 0.0698 | – |
| ACAGACGAAGGAGCCGCAAAGAAGTTATTAAGGGATGAATAAACCATCAATATAAATATCTCTCACTTATTTAAA | 0.101 | 0.125 | – |
| ACAGACGAAGGAGCCGCAAAGAAGTTATTAAGGGATGAATAAACCCACAATATAAATATCTCTCACTTATTTAAA | 0.0828 | 0.143 | – |
| ACAGACGAAGGAGCCGCAAAGAAGTTATTAAGGGATGAATAAACCCGCAATATAAATATCTCTCACTTATTTAAA | 0.103 | – | – |
| ACAGACGAAGGAGCCGCAAAGAAGTTATTAAGGGATGAATAAACCCTAAATATAAATATCTCTCACTTATTTAAA | 0.4 | – | – |
| ACAGACGAAGGAGCCGCAAAGAAGTTATTAAGGGATGAATAAACCCTCAAAATAAATATCTCTCACTTATTTAAA | 0.198 | 0.196 | – |
| ACAGACGAAGGAGCCGCAAAGAAGTTATTAAGGGATGAATAAACCCTCAACATAAATATCTCTCACTTATTTAAA | 0.0675 | 0.122 | – |
| ACAGACGAAGGAGCCGCAAAGAAGTTATTAAGGGATGAATAAACCCTCAATATAAAAATCTCTCACTTATTTAAA | 0.519 | – | – |
| ACAGACGAAGGAGCCGCAAAGAAGTTATTAAGGGATGAATAAACCCTCAATATAAATAACTCTCACTTATTTAAA | 0.464 | – | – |
| ACAGACGAAGGAGCCGCAAAGAAGTTATTAAGGGATGAATAAACCCTCAATATAAATATCTCTCACTTATTTAAA | 0.52 | 0.443 | 0.578 |
| ACAGACGAAGGAGCCGCAAAGAAGTTATTAAGGGATGAATAAACCCTCAATATAAATGTCTCTCACTTATTTAAA | 0.39 | 0.292 | – |
| ACAGACGAAGGAGCCGCAAAGAAGTTATTAAGGGATGAATAAACCCTCAATATAATTATCTCTCACTTATTTAAA | 0.33 | 0.293 | – |
| ACAGACGAAGGAGCCGCAAAGAAGTTATTAAGGGATGAATAAACCCTCAATATAGATATCTCTCACTTATTTAAA | 0.342 | 0.365 | – |
| ACAGACGAAGGAGCCGCAAAGAAGTTATTAAGGGATGAATAAACCCTCAATATATATATCTCTCACTTATTTAAA | 0.477 | 0.488 | – |
| ACAGACGAAGGAGCCGCAAAGAAGTTATTAAGGGATGAATAAACCCTCAATGTAAATATCTCTCACTTATTTAAA | 0.19 | – | – |
| ACAGACGAAGGAGCCGCAAAGAAGTTATTAAGGGATGAATAAACCCTCACTATAAATATCTCTCACTTATTTAAA | 0.173 | – | – |

| Sequence | cleaved RNA product abundance [1] | cleaved RNA product abundance [2] | cleaved RNA product abundance [3] |
| --- | --- | --- | --- |
| ACAGACGAAGGAGCCGCAAAGAAGTTATTAAGGGATGAATAAACCCTCAGTATAAATATCTCTCACTTATTTAAA | 0.211 | – | – |
| ACAGACGAAGGAGCCGCAAAGAAGTTATTAAGGGATGAATAAACCCTCATTATAAATATCTCTCACTTATTTAAA | 0.19 | 0.13 | – |
| ACAGACGAAGGAGCCGCAAAGAAGTTATTAAGGGATGAATAAACCCTCCATATAAATATCTCTCACTTATTTAAA | 0.162 | – | – |
| ACAGACGAAGGAGCCGCAAAGAAGTTATTAAGGGATGAATAAACCCTCTATATAAATATCTCTCACTTATTTAAA | – | 0.151 | – |
| ACAGACGAAGGAGCCGCAAAGAAGTTATTAAGGGATGAATAAACCCTGAATATAAATATCTCTCACTTATTTAAA | 0.388 | 0.303 | – |
| ACAGACGAAGGAGCCGCAAAGAAGTTATTAAGGGATGAATAAACCCTTAATATAAATATCTCTCACTTATTTAAA | 0.507 | – | – |
| ACAGACGAAGGAGCCGCAAAGAAGTTATTAAGGGATGAATAAACCTTCAATATAAATATCTCTCACTTATTTAAA | 0.267 | 0.096 | – |
| ACAGACGAAGGAGCCGCAAAGAAGTTATTAAGGGATGAATAAACTCTCAATATAAATATCTCTCACTTATTTAAA | 0.14 | – | – |
| ACAGACGAAGGAGCCGCAAAGAAGTTATTAAGGGATGAATAAATCCCTCAATATAAATATCTCTCACTTATTTAA | 0.537 | – | – |
| ACAGACGAAGGAGCCGCAAAGAAGTTATTAAGGGATGAATAAATCCTCAATATAAATATCTCTCACTTATTTAAA | 0.306 | – | – |
| ACAGACGAAGGAGCCGCAAAGAAGTTATTAAGGGATGAATAACACCACAATATAAATATCTCTCACTTATTTAAA | 0.0909 | – | – |
| ACAGACGAAGGAGCCGCAAAGAAGTTATTAAGGGATGAATAACACCTCAATATAAATATCTCTCACTTATTTAAA | 0.164 | – | – |
| ACAGACGAAGGAGCCGCAAAGAAGTTATTAAGGGATGAATAACCACTCAATATAAATATCTCTCACTTATTTAAA | 0.17 | 0.0866 | – |
| ACAGACGAAGGAGCCGCAAAGAAGTTATTAAGGGATGAATAACCCCTAAATATAAATATCTCTCACTTATTTAAA | 0.542 | – | – |
| ACAGACGAAGGAGCCGCAAAGAAGTTATTAAGGGATGAATAACCCCTCAAAATAAATATCTCTCACTTATTTAAA | – | 0.208 | – |
| ACAGACGAAGGAGCCGCAAAGAAGTTATTAAGGGATGAATAACCCCTCAATATAAATATCTCTCACTTATTTAAA | 0.609 | 0.56 | 0.408 |
| ACAGACGAAGGAGCCGCAAAGAAGTTATTAAGGGATGAATAACCCCTCAATATACATATCTCTCACTTATTTAAA | 0.37 | – | – |
| ACAGACGAAGGAGCCGCAAAGAAGTTATTAAGGGATGAATAACCCCTCAATATATATATCTCTCACTTATTTAAA | 0.739 | – | – |
| ACAGACGAAGGAGCCGCAAAGAAGTTATTAAGGGATGAATAACCCCTCAATCTAAATATCTCTCACTTATTTAAA | 0.0932 | – | – |
| ACAGACGAAGGAGCCGCAAAGAAGTTATTAAGGGATGAATAACCCCTCCATATAAATATCTCTCACTTATTTAAA | 0.178 | – | – |

| Sequence | cleaved RNA product abundance [1] | cleaved RNA product abundance [2] | cleaved RNA product abundance [3] |
| --- | --- | --- | --- |
| ACAGACGAAGGAGCCGCAAAGAAGTTATTAAGGGATGAATAACCCCTCTATATAAATATCTCTCACTTATTTAAA | 0.229 | – | – |
| ACAGACGAAGGAGCCGCAAAGAAGTTATTAAGGGATGAATAACCCCTTAATATAAATATCTCTCACTTATTTAAA | 0.505 | 1.34 | – |
| ACAGACGAAGGAGCCGCAAAGAAGTTATTAAGGGATGAATAACCCTTCAATATAAATATCTCTCACTTATTTAAA | 0.346 | – | – |
| ACAGACGAAGGAGCCGCAAAGAAGTTATTAAGGGATGAATAACCTCTCAATATAAATATCTCTCACTTATTTAAA | 0.151 | – | – |
| ACAGACGAAGGAGCCGCAAAGAAGTTATTAAGGGATGAATAACTCCTCAATATAAATATCTCTCACTTATTTAAA | 0.149 | 0.14 | – |
| ACAGACGAAGGAGCCGCAAAGAAGTTATTAAGGGATGAATAAGCCCTAAATATAAATATCTCTCACTTATTTAAA | 0.528 | 0.342 | – |
| ACAGACGAAGGAGCCGCAAAGAAGTTATTAAGGGATGAATAAGCCCTCAAAATAAATATCTCTCACTTATTTAAA | 0.261 | – | – |
| ACAGACGAAGGAGCCGCAAAGAAGTTATTAAGGGATGAATAAGCCCTCAAGATAAATATCTCTCACTTATTTAAA | 0.176 | – | – |
| ACAGACGAAGGAGCCGCAAAGAAGTTATTAAGGGATGAATAAGCCCTCAATATAAATAGCTCTCACTTATTTAAA | 0.406 | – | – |
| ACAGACGAAGGAGCCGCAAAGAAGTTATTAAGGGATGAATAAGCCCTCAATATAAATATCTCTCACTTATTTAAA | 0.634 | 0.683 | 0.775 |
| ACAGACGAAGGAGCCGCAAAGAAGTTATTAAGGGATGAATAAGCCTTCAATATAAATATCTCTCACTTATTTAAA | 0.171 | – | – |
| ACAGACGAAGGAGCCGCAAAGAAGTTATTAAGGGATGAATAATAACTCAATATAAATATCTCTCACTTATTTAAA | 0.128 | 0.0902 | – |
| ACAGACGAAGGAGCCGCAAAGAAGTTATTAAGGGATGAATAATACATCAATATAAATATCTCTCACTTATTTAAA | 0.0848 | – | – |
| ACAGACGAAGGAGCCGCAAAGAAGTTATTAAGGGATGAATAATACCACAATATAAATATCTCTCACTTATTTAAA | 0.0911 | 0.0894 | – |
| ACAGACGAAGGAGCCGCAAAGAAGTTATTAAGGGATGAATAATACCCCAATATAAATATCTCTCACTTATTTAAA | 0.149 | – | – |
| ACAGACGAAGGAGCCGCAAAGAAGTTATTAAGGGATGAATAATACCTAAATATAAATATCTCTCACTTATTTAAA | 0.132 | 0.12 | – |
| ACAGACGAAGGAGCCGCAAAGAAGTTATTAAGGGATGAATAATACCTCAAAATAAATATCTCTCACTTATTTAAA | 0.155 | – | – |
| ACAGACGAAGGAGCCGCAAAGAAGTTATTAAGGGATGAATAATACCTCAAGATAAATATCTCTCACTTATTTAAA | 0.124 | 0.102 | – |
| ACAGACGAAGGAGCCGCAAAGAAGTTATTAAGGGATGAATAATACCTCAATACAAATATCTCTCACTTATTTAAA | 0.0658 | – | – |
